Measurements published in the nanobody polyreactivity screen of Harvey et al. (2022).

Assay: yeast display, Sf9 membrane polyspecificity reagent, FACS + sequencing; frameworks hold sequencing errors
In short: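 A synthetic nanobody library was expressed on Saccharomyces cerevisiae BJ5465 by galactose induction for 36–48 hours. The library was stained for 1 hour at 4 °C with 10% biotinylated, detergent-solubilized Sf9 membrane reagent and enriched with streptavidin microbeads before FACS. Low and high (top ~1%) gates were set on anti-HA fluorescence for expression and streptavidin fluorescence for reagent binding, and each polyreactivity label reflects the gate of origin.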

| Sequence | polyreactivity (PSR sort gate) |
| --- | --- |
| QFQRVDSGGGLVQAGGSLRLSCAASGSTLAVNAMGWYRQAHGKERELVAAITRSGGRTYYADSLKWRFTISRDNAKNTVYLQMNSLKPEDTAVYYFGAKWYYPFIPKRTTRYGFDYWGHGTQVTVSS | high polyreactivity |
| QGHLVESGGGLVQAGGSLRLSCAASGVTFYTYDMGWYRQAPGKERELVAGIDWSGGSTYYADSVNGRFTISRDNAKNTVDLLMNSLKPEYTAVYYCASDYYYASQMDYWGQGTQVTVSS | low polyreactivity |
| QGLLVESGGGLVQAGGSLRLTCAASGFIFSGYAMGWYRPAPGKERELVAAISWSGSSTYYADSVKGRFTISRDNAKNTVYLQMNSLKPEDTAVYYCAAWYTSTRPYDYWGQGTQVTVSS | high polyreactivity |
| QGQHVESGGGLVHAGGSLRLSCAASGSIFPYYAMGWYRQRPGKERELVAAITDCGSTNYADSVKGRFTISRDNAKNTVYLQMNSLKPEDTAVYYCNKLAGYYDYDYWGQCTQVTVSS | low polyreactivity |
| QGQHVESGGGLVQAGGSLRLSCAASGSIFAAYAMGWYRQATGKERELVAPIDRGGSTDYADSVKGRFTISRDNAKNTVFLPMNSLKPEDTAVYYCDKGYDYYVRRYYYWGQGTQVTGSS | high polyreactivity |
| QGQHVESGGGLVQAGGSLRLSCDASGSTIYQYAMGWYRQAPGKESELVAAISGISGSTSYADSVTGRFTISRDNAKNTVYLQMNSLKPEDTAVYDCAKGTAPIPYRGRVGTSKSDYWGQGTQVTVSS | low polyreactivity |
| QGQHVESGGGLVQAGGSLRLSSAASGITISYYGMGWYRQERGKDRELVASITKRGGRTYYADSVKGRFTISRDNAKNTVYLQMNSLKPEETAVYYCAADRAAPRYDYWGQGTQVTVSS | high polyreactivity |
| QGQHVESGGGLVQARGSRRLSCAPSGRTFGYDAMGWYRQAPGKERELVAAINYSGVSTYYADSVKGGFTISRDTAKNTVYLQRNSLKPEDTAGSYCAAKGRYSVYSRNSWGQGTQVTVSS | high polyreactivity |
| QGQLEESGGGLVQAGGSLRLTCAASGRNLRTYAMGWYRQATGKERELVAAISRGGSTNYADSVKGRFTISRDNAKNTVYLQMHSLKPEDTAVYYCAAGYVRYYSDYVSYVYWGQGTQVTVSS | low polyreactivity |
| QGQLEESVGGLVQAGGSLRLSCAASGRIFRYYAMGLYRQAPGKERELVAAIRSGGSTNYADSVKGRFTISRDNAKNTVYLQMKSLKPEDTAVYYCNARYRYFKGGYWGQGTQVTVSS | high polyreactivity |
| QGQLVASGGGLVQAGGSLRLSSAASGSIFWLSTMGWSRQGPGKEREWVAAITGSGSATYYADSVKGRFTISRDYAKNTVYLQMTTLKPEDTADYYCAAYWSSARRRYDYWGQGSQVTVSS | high polyreactivity |
| QGQLVDSGGGLVQAGGSLRLICAASGYIFRLYAMGWYRHAPGKERELVAAISRRGGSTYYADSVKGRFTISRDNAKITVYLQMNSLKPEDTAVYYGATDHSYIDDYWGQGTQVTVSS | high polyreactivity |
| QGQLVESGGALVQAGGSLRISCAASGRTISQNSMGLYRPAPGKERELVAAIRRGGSTNYADSVKGRFTISRDNAKNTVFLQMNSLKQEDSAFYYCAGDLRRNGWGFDYWGQGTQVTVSS | high polyreactivity |
| QGQLVESGGALVQAGGSLRLSCAPSGSTFGVYTMGWYRQAPGKERELVAAITKSGGSTYYADSVKGRFTISRDNAKNTVYLQMNSLKPEDTAVYYCNTDYGSYLYYRYGYWGQGTQVTVSS | low polyreactivity |
| QGQLVESGGGIVQAGCSLLLSCSASGLIFRRKTLGWYRQAPGTERELVAVISSSGSSTYYADSVKGRFTISRDNAKNTVYLQMNSLKPEDTAVYYCAARYAIGPGYDYWGQGTQVTVSS | high polyreactivity |
| QGQLVESGGGLGQAGGSLRLSCAASGSTFGDSAMVWYRQAPGKERELVAGISARGGRTYYADSVKGRFTISRDNAKNTVYLQMNSLKPEDTAVYDCNARTGYQDGSYGNDYWGQGTQVTVSS | high polyreactivity |
| QGQLVESGGGLGQEGGSLRLICAASGNTFDYYVMGWYRQAPGKERELVAVITSGSSTYYADSVKGRFTISRDNAKNTVFFQMNSLQPEDTAVYYCAKTTRRPGLRSYDYWGQGTQVTVSS | high polyreactivity |
| QGQLVESGGGLVQAGCSLRLSCAASGSNFYYKAMGWYRQAPRKERELVARISRSGGSTYADSVKGRFTISRDNAKNTVYLQMNSLKPEDTAVYYCNADAYGTPEFTPYSVRYDYWGQGTQVTVSS | low polyreactivity |
| QGQLVESGGGLVQAGGILRLRCAACGSTILVYAMGWYRHAPGQERELVAFIDNGGDTYYADSVKGRFTISRDNAKNTVYLQMYSLKPEDTEVYYCADDLSYLGYWEYDYWGQGTQVTVSS | low polyreactivity |
| QGQLVESGGGLVQAGGSLRLRSAASGRTFNYYAMGWYRQAHGKERELVATSSWSGVSTRYADSVKGRFTISRDNAKNTVYLEMNSLNPEDTAVYYCNAGYSKRSFYSAYGYWGEGTQVTVSS | high polyreactivity |
| QGQLVESGGGLVQAGGSLRLSCAASGFSFQYYAMGWSRHAHGKERELVAAINRGGGTHYADSVKGRFTISRDNAKNTVYFQMHSLKPEDTAVYYCNKVYYWPGSRPSRYEYWGQGTQVTVSS | low polyreactivity |
| QGQLVESGGGLVQAGGSLRLSCAASGFSYGFYAMGWYRQAPGKERELVASNSNGDSTNYADSVKGRFTISRDNAKNTVYLQMNSLKPEDTAVYYCATYGGYNPSPLYWGQGTQVTVSS | high polyreactivity |

| Sequence | polyreactivity (PSR sort gate) |
| --- | --- |
| QGQLVESGGGLVQAGGSLRLSCAASGFTFKFYAMGWYRQAPGKEREFVAAISGSGGSTYYAHSVKGRFTISRDNAKNTVYLQMNSLKPEDTAVYYCAAEVPGKPYGRSRYSFRHDYWGQGTQVTVSS | low polyreactivity |
| QGQLVESGGGLVQAGGSLRLSCAASGGTFSDNVMGWYRQAPGKERELVAANSRSGGSTYYADSVKGRNTISRDNAKNTLSLQMNSLKPEDTAVYYCNAIGSKRGAYKAAFNYWGQGTQVTVSS | high polyreactivity |
| QGQLVESGGGLVQAGGSLRLSCAASGITFYSYAMGWYRQAPGKERELVAAITLTGGTTYYADSVKGRFTISRDNAKNTVYLQMNSLKPEDTAVYYCNSDYGGGVDGTYKYYSEYDYWGQGTQVTVSS | low polyreactivity |
| QGQLVESGGGLVQAGGSLRLSCAASGITYYKYVMAWYIQAPGKERELVAAISRSSGSTYYADSVKGRFTISRDNAKNTVYLQMNSLKPEDTAVYYCARDQGKLVVPYDYWGQGTQVTVSS | high polyreactivity |
| QGQLVESGGGLVQAGGSLRLSCAASGLIFYKYAMGWYRQAPGKERVLVAAISSSGGSTYYGDSVKGRFTISRDTAKNTVYFQMNSLKPEDTADSSCAARTNRRGYHDWGQGTQVTVSS | high polyreactivity |
| QGQLVESGGGLVQAGGSLRLSCAASGRIFYTNAMGGYRQARGKERELVAGINYSGGNTYADSVKGRFTISRDNAKNTVYLQMNSLKPEDTAVYYCAARGWSHYGYGDNYRHGYWGQGTQVTVSS | high polyreactivity |
| QGQLVESGGGLVQAGGSLRLSCAASGRTFDSNAMGWYRQAPGKERELFAAISQRGGRTYYADSVKGRFTISRDNAKNTVYFQMNSLKQVYTAFYYCNKVGRRKLDYWGQGTQVTVSS | high polyreactivity |
| QGQLVESGGGLVQAGGSLRLSCAASGRTFYTYAMGWYSPAAGKERELVAAMTRSGGRTYYADSVKVRFTISRDNAKNTVYLQMNSLKPEDTAVYYCGAKTFYWWADYDYWGQGTQVTVSS | high polyreactivity |
| QGQLVESGGGLVQAGGSLRLSCAASGRTFYVNAMGWYRQAPGKERELVAGISFSDGSTYYADSVKGRFTISRDNAKNSVYLQMNSLKPEDTAVYYCATVGAFDIYYGYGYWVQGTQVTVSS | low polyreactivity |
| QGQLVESGGGLVQAGGSLRLSCAASGRTLQYNAMGWYRPAPGKEWELVAAITSNGGSTYYADSVKGRFPISRDNAKNTVYLQMNSQKPEDTAVYDCAKAYRYVDRGYRLLRYGYWGQGNQVTVSS | high polyreactivity |
| QGQLVESGGGLVQAGGSLRLSCAASGSIFGGYGMGWYRQAPGKERELVAAITSGSSTYYADSVKGRFTISRDNAKNTVYLQMNSLKPEDTAVYYCAARPYPHSAYEGDYWGRGTQVTVSS | low polyreactivity |
| QGQLVESGGGLVQAGGSLRLSCAASGSIFGQYVMGWYRQAPGKERELVAAISGTGGSTYYADSVKGRFTISRDNAKNTVYLQMNSLKPEDTAVYYCAVVHRSSYRESGLLWRYYWGQGTQVTVSS | high polyreactivity |
| QGQLVESGGGLVQAGGSLRLSCAASGSIFRGYAMGWYRQAPGKERELVAAISWSGGSTYYADSVKGRFTISRDNAKNTVYLQMNSLKPEDTAVYYCAADRDVFGYWYYYWGQGTQVTVSS | high polyreactivity |
| QGQLVESGGGLVQAGGSLRLSCAASGSIFSKNALGWYRQAPGRERELVAAITSGASTNYADSVKGRFTISRDNAKNTVYLQMNSLKPEDTAGYYCAAKRNGFWYGYWGQGTQVTVSS | low polyreactivity |
| QGQLVESGGGLVQAGGSLRLSCAASGSIFYWYAMGWYRQAPGKERELVAVISTGTSTKYADSVKGRFTISRDNAKNTVYLQMNSLKPEDTAVYYCNADPVGPKYDYWGQGTQVTVSS | low polyreactivity |
| QGQLVESGGGLVQAGGSLRLSCAASGSIVWYNAMGWYRQAPGKERELVAAINWSGGSTFYADSVKGRFTISRDNAKNTVYLQMYSLKPEDTAVYYCAADDWYTGYDYWGQGTQVTVSS | high polyreactivity |
| QGQLVESGGGLVQAGGSLRLSCAASGSSFPYYAMGWYRQAPGKERELVASINQSDGTTYYADSVKGRFSISRDNAKNTVYLQMNSLKPEDTAVYYCAADTTLQAFIRYSPIGSYDSWGQGTQVTVSS | low polyreactivity |
| QGQLVESGGGLVQAGGSLRLSCAASGSTFANYDMAWYRQAPGKERELVAAITSRGGSTYYADSVKGRFTISRDNAKNTVYLQMNSLKPEDTAVYYCAAVTRNQGSFRYYFWGQGTQVTVSS | high polyreactivity |
| QGQLVESGGGLVQAGGSLRLSCAASGSTFRYNTMGWYRQAPGKERELVAAISSGGGTHYADSVKGRFTISRDNAKNTVYLQMNSLKPEDTAVYYCAAQSRYRYQFYSGLEYDYWGQGTQVTVSS | low polyreactivity |
| QGQLVESGGGLVQAGGSLRLSCAASGSTFSDYAKGWYRQAPGKERELVAGITGGGGTYYADSVKGRFTISRDNAKNTVYLQMNSLKPEDTAVYYCAAGRRHGFGYWGQGTQVTVSS | low polyreactivity |
| QGQLVESGGGLVQAGGSLRLSCAASGSTFWLNAMGWYRHAPGKERELVAVITWSGDGTYYADSVKWRFTISRDNAKNTVYVQMNSLKPEDTAVYYCAKGFERYPWYDYWGQGTQVTVSS | low polyreactivity |
